Test system: K562 cells
Experiment: AAV6 transduction of K562 cells after enzyme / inhibitor treatment
Format: cell-based, human
From the text: More recently, Denard et al. reported that galectin-3-binding protein in human sera agglutinates AAV6 vectors, which results in decreased transduction efficiency of these vectors. […] The identity of the putative receptor for AAV6 vectors in human CD34^+ cells remains elusive, and additional studies are warranted. […] The implication is that AAV6 uses a protein rather than a lipid on K562 cells for binding and entry into these cells. In addition, because AAV6 is known to have evolved from recombination between AAV1 and AAV2, and because AAV2 uses heparan sulfateproteoglycan (HSPG) as the primary cellular receptor, the level of HSPG expression on K562 cells surface was examined by FACS. […] The effect of inhibitors of O-linked and N-linked glycosylation was also evaluated on the transduction efficiency of AAV6 vectors in K562 cells.

B1: Proteinase K: Proteinase K (Sigma-Aldrich Co.) (protein, UniProt P06873 106-384, looked up)
Proteinase K: AAQTNAPWGLARISSTSPGTSTYYYDESAGQGSCVYVIDTGIEASHPEFEGRAQMVKTYYYSSRDGNGHGTHCAGTVGSRTYGVAKKTQLFGVKVLDDNGSGQYSTIIAGMDFVASDKNNRNCPKGVVASLSLGGGYSSSVNSAAARLQSSGVMVAVAAGNNNADARNYSPASEPSVCTVGASDRYDRRSSFSNYGSVLDIFGPGTSILSTWIGGSTRSISGTSMATPHVAGLAAYLMTLGKTTAASACRYIADTANKGDLSNIPFGTVNLLAYNNYQA
  effect on AAV6 vector-mediated transduction of K562 cells: dramatically decrease
